This assay has as its target T1, human FcγRIIb receptor protein (R&D Systems) (human, UniProt P31994 46-217).
T1 construct: Analyte injected over antibodies captured on a protein A/G chip (Biacore); also called CD32b
T1 sequence (looked up): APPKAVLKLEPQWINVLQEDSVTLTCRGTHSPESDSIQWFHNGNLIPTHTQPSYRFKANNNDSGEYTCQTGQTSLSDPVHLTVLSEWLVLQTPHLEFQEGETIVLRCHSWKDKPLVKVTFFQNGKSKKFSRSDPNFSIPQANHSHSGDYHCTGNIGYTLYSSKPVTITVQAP
The experiment in a line: SPR (Biacore). As for the experimental part:
Variants were screened for receptor affinity using Biacore™ technology, also referred to as Biacore herein, a surface plasmon resonance (SPR) based technology for studying biomolecular interactions in real time. SPR measurements were performed using a Biacore 3000 instrument (Biacore, Piscataway, N.J.). A protein A/G (Pierce Biotechnology) CM5 biosensor chip (Biacore) was generated using a standard primary amine coupling protocol. All measurements were performed using HBS-EP buffer (10 mM HEPES pH 7.4, 0.15 M NaCl, 3 mM EDTA, 0.005% vol/vol surfactant P20, Biacore). Antibodies at 20 nM or 50 nM in HBS-EP buffer were immobilized on the protein A/G surface and FcγRs were injected. After each cycle, the surface was regenerated by injecting glycine buffer (10 mM, pH 1.5). Data were processed by zeroing time and response before the injection of FcγR and by subtracting appropriate nonspecific signals (response of reference channel and injection of running buffer). Kinetic analyses were performed by global fitting of binding data with a 1:1 Langmuir binding model using BIAevaluation software (Biacore).

B1: H268D/K326D/L328Y (antibody, human IgG1, kappa)
heavy: EVQLVESGGGLVKPGGSLKLSCAASGYTFTSYVMHWVRQAPGKGLEWIGYINPYNDGTKYNEKFQGRVTISSDKSISTAYMELSSLRSEDTAMYYCARGTYYYGTRVFDYWGQGTLVTVSSASTKGPSVFPLAPSSKSTSGGTAALGCLVKDYFPEPVTVSWNSGALTSGVHTFPAVLQSSGLYSLSSVVTVPSSSLGTQTYICNVNHKPSNTKVDKKVEPKSCDKTHTCPPCPAPELLGGPSVFLFPPKPKDTLMISRTPEVTCVVVDVSDEDPEVKFNWYVDGVEVHNAKTKPREEQYNSTYRVVSVLTVLHQDWLNGKEYKCKVSNDAYPAPIEKTISKAKGQPREPQVYTLPPSREEMTKNQVSLTCLVKGFYPSDIAVEWESNGQPENNYKTTPPVLDSDGSFFLYSKLTVDKSRWQQGNVFSCSVMHEALHNHYTQKSLSLSPGK
light: DIVMTQSPATLSLSPGERATLSCRSSKSLQNVNGNTYLYWFQQKPGQSPQLLIYRMSNLNSGVPDRFSGSGSGTEFTLTISSLEPEDFAVYYCMQHLEYPITFGAGTKLEIKRTVAAPSVFIFPPSDEQLKSGTASVVCLLNNFYPREAKVQWKVDNALQSGNSQESVTEQDSKDSTYSLSSTLTLSKADYEKHKVYACEVTHQGLSSPVTKSFNRGEC
notes: HuAM4G7 IgG1 Fc variant
Consider B1, for which the “Fold FcγRIIb” value worked out at 18.6 fold.

B2: K326E (antibody, human IgG1, kappa)
heavy: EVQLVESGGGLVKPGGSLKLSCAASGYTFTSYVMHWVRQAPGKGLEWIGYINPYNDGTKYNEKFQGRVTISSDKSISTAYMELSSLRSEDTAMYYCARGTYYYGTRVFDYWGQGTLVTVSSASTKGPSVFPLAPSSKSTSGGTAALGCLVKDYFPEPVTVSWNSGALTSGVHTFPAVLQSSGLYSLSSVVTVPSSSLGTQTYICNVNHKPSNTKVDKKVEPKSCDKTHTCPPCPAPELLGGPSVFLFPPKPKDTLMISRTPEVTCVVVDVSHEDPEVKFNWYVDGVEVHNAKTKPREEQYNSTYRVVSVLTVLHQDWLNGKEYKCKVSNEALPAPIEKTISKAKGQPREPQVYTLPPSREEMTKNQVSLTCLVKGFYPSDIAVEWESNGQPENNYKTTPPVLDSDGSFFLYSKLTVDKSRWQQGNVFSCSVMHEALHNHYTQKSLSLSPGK
light: DIVMTQSPATLSLSPGERATLSCRSSKSLQNVNGNTYLYWFQQKPGQSPQLLIYRMSNLNSGVPDRFSGSGSGTEFTLTISSLEPEDFAVYYCMQHLEYPITFGAGTKLEIKRTVAAPSVFIFPPSDEQLKSGTASVVCLLNNFYPREAKVQWKVDNALQSGNSQESVTEQDSKDSTYSLSSTLTLSKADYEKHKVYACEVTHQGLSSPVTKSFNRGEC
notes: HuAM4G7 IgG1 Fc variant
With B2, the “Fold FcγRIIb” value was 6.09 fold.

B3: H268E/L328Y/I332E (antibody, human IgG1, kappa)
heavy: EVQLVESGGGLVKPGGSLKLSCAASGYTFTSYVMHWVRQAPGKGLEWIGYINPYNDGTKYNEKFQGRVTISSDKSISTAYMELSSLRSEDTAMYYCARGTYYYGTRVFDYWGQGTLVTVSSASTKGPSVFPLAPSSKSTSGGTAALGCLVKDYFPEPVTVSWNSGALTSGVHTFPAVLQSSGLYSLSSVVTVPSSSLGTQTYICNVNHKPSNTKVDKKVEPKSCDKTHTCPPCPAPELLGGPSVFLFPPKPKDTLMISRTPEVTCVVVDVSEEDPEVKFNWYVDGVEVHNAKTKPREEQYNSTYRVVSVLTVLHQDWLNGKEYKCKVSNKAYPAPEEKTISKAKGQPREPQVYTLPPSREEMTKNQVSLTCLVKGFYPSDIAVEWESNGQPENNYKTTPPVLDSDGSFFLYSKLTVDKSRWQQGNVFSCSVMHEALHNHYTQKSLSLSPGK
light: DIVMTQSPATLSLSPGERATLSCRSSKSLQNVNGNTYLYWFQQKPGQSPQLLIYRMSNLNSGVPDRFSGSGSGTEFTLTISSLEPEDFAVYYCMQHLEYPITFGAGTKLEIKRTVAAPSVFIFPPSDEQLKSGTASVVCLLNNFYPREAKVQWKVDNALQSGNSQESVTEQDSKDSTYSLSSTLTLSKADYEKHKVYACEVTHQGLSSPVTKSFNRGEC
notes: HuAM4G7 IgG1 Fc variant
As to B3, the “Fold FcγRIIb” value came out at 8.53 fold.

B4: K326W (antibody, human IgG1, kappa)
heavy: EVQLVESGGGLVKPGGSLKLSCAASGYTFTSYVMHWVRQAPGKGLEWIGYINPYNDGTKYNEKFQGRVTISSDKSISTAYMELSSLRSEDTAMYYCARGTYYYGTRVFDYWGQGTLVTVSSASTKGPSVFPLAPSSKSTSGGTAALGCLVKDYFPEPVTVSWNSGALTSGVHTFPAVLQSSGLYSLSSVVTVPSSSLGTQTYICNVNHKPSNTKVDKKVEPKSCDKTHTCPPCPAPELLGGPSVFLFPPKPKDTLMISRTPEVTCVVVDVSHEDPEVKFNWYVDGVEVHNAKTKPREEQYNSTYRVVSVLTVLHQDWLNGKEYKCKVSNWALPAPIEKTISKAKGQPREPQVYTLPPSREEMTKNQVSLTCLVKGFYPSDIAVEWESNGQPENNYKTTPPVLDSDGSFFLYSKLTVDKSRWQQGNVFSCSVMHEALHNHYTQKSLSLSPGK
light: DIVMTQSPATLSLSPGERATLSCRSSKSLQNVNGNTYLYWFQQKPGQSPQLLIYRMSNLNSGVPDRFSGSGSGTEFTLTISSLEPEDFAVYYCMQHLEYPITFGAGTKLEIKRTVAAPSVFIFPPSDEQLKSGTASVVCLLNNFYPREAKVQWKVDNALQSGNSQESVTEQDSKDSTYSLSSTLTLSKADYEKHKVYACEVTHQGLSSPVTKSFNRGEC
notes: HuAM4G7 IgG1 Fc variant
As to B4, the “Fold FcγRIIb” value was determined as 3.04 fold.

B5: H268D/L328Y/I332E (antibody, human IgG1, kappa)
heavy: EVQLVESGGGLVKPGGSLKLSCAASGYTFTSYVMHWVRQAPGKGLEWIGYINPYNDGTKYNEKFQGRVTISSDKSISTAYMELSSLRSEDTAMYYCARGTYYYGTRVFDYWGQGTLVTVSSASTKGPSVFPLAPSSKSTSGGTAALGCLVKDYFPEPVTVSWNSGALTSGVHTFPAVLQSSGLYSLSSVVTVPSSSLGTQTYICNVNHKPSNTKVDKKVEPKSCDKTHTCPPCPAPELLGGPSVFLFPPKPKDTLMISRTPEVTCVVVDVSDEDPEVKFNWYVDGVEVHNAKTKPREEQYNSTYRVVSVLTVLHQDWLNGKEYKCKVSNKAYPAPEEKTISKAKGQPREPQVYTLPPSREEMTKNQVSLTCLVKGFYPSDIAVEWESNGQPENNYKTTPPVLDSDGSFFLYSKLTVDKSRWQQGNVFSCSVMHEALHNHYTQKSLSLSPGK
light: DIVMTQSPATLSLSPGERATLSCRSSKSLQNVNGNTYLYWFQQKPGQSPQLLIYRMSNLNSGVPDRFSGSGSGTEFTLTISSLEPEDFAVYYCMQHLEYPITFGAGTKLEIKRTVAAPSVFIFPPSDEQLKSGTASVVCLLNNFYPREAKVQWKVDNALQSGNSQESVTEQDSKDSTYSLSSTLTLSKADYEKHKVYACEVTHQGLSSPVTKSFNRGEC
notes: HuAM4G7 IgG1 Fc variant
Turning to B5, the “Fold FcγRIIb” value turned out to be 4.89 fold.

B6: H268D/L328Y (antibody, human IgG1, kappa)
heavy: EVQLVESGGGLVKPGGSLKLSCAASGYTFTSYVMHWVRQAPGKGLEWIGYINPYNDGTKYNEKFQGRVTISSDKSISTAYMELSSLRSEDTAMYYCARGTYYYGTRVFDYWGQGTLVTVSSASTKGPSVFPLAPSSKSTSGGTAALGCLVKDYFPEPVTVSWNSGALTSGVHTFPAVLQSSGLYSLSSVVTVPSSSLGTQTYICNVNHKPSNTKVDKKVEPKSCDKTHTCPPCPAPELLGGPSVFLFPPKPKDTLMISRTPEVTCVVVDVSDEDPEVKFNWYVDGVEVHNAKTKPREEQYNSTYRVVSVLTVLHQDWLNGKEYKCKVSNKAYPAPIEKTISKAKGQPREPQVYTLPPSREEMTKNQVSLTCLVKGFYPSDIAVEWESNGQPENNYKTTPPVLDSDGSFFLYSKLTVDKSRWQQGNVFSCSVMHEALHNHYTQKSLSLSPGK
light: DIVMTQSPATLSLSPGERATLSCRSSKSLQNVNGNTYLYWFQQKPGQSPQLLIYRMSNLNSGVPDRFSGSGSGTEFTLTISSLEPEDFAVYYCMQHLEYPITFGAGTKLEIKRTVAAPSVFIFPPSDEQLKSGTASVVCLLNNFYPREAKVQWKVDNALQSGNSQESVTEQDSKDSTYSLSSTLTLSKADYEKHKVYACEVTHQGLSSPVTKSFNRGEC
notes: HuAM4G7 IgG1 Fc variant
Turning to B6, the “Fold FcγRIIb” value stood at 1.91 fold.

B7: K326A (antibody, human IgG1, kappa)
heavy: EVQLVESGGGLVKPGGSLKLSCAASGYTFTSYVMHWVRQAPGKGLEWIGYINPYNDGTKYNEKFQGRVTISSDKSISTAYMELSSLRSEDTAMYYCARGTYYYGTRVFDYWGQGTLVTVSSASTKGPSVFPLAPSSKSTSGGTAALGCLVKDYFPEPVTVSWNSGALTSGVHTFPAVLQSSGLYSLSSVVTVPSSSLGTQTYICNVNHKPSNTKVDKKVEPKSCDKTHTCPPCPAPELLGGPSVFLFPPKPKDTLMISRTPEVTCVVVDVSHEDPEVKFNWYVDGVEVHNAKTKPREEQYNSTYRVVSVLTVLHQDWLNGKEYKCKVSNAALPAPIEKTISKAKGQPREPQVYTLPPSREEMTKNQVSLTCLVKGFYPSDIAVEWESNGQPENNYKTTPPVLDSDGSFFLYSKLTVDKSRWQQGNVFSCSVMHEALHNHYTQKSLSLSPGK
light: DIVMTQSPATLSLSPGERATLSCRSSKSLQNVNGNTYLYWFQQKPGQSPQLLIYRMSNLNSGVPDRFSGSGSGTEFTLTISSLEPEDFAVYYCMQHLEYPITFGAGTKLEIKRTVAAPSVFIFPPSDEQLKSGTASVVCLLNNFYPREAKVQWKVDNALQSGNSQESVTEQDSKDSTYSLSSTLTLSKADYEKHKVYACEVTHQGLSSPVTKSFNRGEC
notes: HuAM4G7 IgG1 Fc variant
Consider B7, for which the binding result was “no binding”.

B8: H268D/L328W/I332E (antibody, human IgG1, kappa)
heavy: EVQLVESGGGLVKPGGSLKLSCAASGYTFTSYVMHWVRQAPGKGLEWIGYINPYNDGTKYNEKFQGRVTISSDKSISTAYMELSSLRSEDTAMYYCARGTYYYGTRVFDYWGQGTLVTVSSASTKGPSVFPLAPSSKSTSGGTAALGCLVKDYFPEPVTVSWNSGALTSGVHTFPAVLQSSGLYSLSSVVTVPSSSLGTQTYICNVNHKPSNTKVDKKVEPKSCDKTHTCPPCPAPELLGGPSVFLFPPKPKDTLMISRTPEVTCVVVDVSDEDPEVKFNWYVDGVEVHNAKTKPREEQYNSTYRVVSVLTVLHQDWLNGKEYKCKVSNKAWPAPEEKTISKAKGQPREPQVYTLPPSREEMTKNQVSLTCLVKGFYPSDIAVEWESNGQPENNYKTTPPVLDSDGSFFLYSKLTVDKSRWQQGNVFSCSVMHEALHNHYTQKSLSLSPGK
light: DIVMTQSPATLSLSPGERATLSCRSSKSLQNVNGNTYLYWFQQKPGQSPQLLIYRMSNLNSGVPDRFSGSGSGTEFTLTISSLEPEDFAVYYCMQHLEYPITFGAGTKLEIKRTVAAPSVFIFPPSDEQLKSGTASVVCLLNNFYPREAKVQWKVDNALQSGNSQESVTEQDSKDSTYSLSSTLTLSKADYEKHKVYACEVTHQGLSSPVTKSFNRGEC
notes: HuAM4G7 IgG1 Fc variant
As to B8, the “Fold FcγRIIb” value was determined as 39.8 fold.

B9: K326D/L328Y/I332E (antibody, human IgG1, kappa)
heavy: EVQLVESGGGLVKPGGSLKLSCAASGYTFTSYVMHWVRQAPGKGLEWIGYINPYNDGTKYNEKFQGRVTISSDKSISTAYMELSSLRSEDTAMYYCARGTYYYGTRVFDYWGQGTLVTVSSASTKGPSVFPLAPSSKSTSGGTAALGCLVKDYFPEPVTVSWNSGALTSGVHTFPAVLQSSGLYSLSSVVTVPSSSLGTQTYICNVNHKPSNTKVDKKVEPKSCDKTHTCPPCPAPELLGGPSVFLFPPKPKDTLMISRTPEVTCVVVDVSHEDPEVKFNWYVDGVEVHNAKTKPREEQYNSTYRVVSVLTVLHQDWLNGKEYKCKVSNDAYPAPEEKTISKAKGQPREPQVYTLPPSREEMTKNQVSLTCLVKGFYPSDIAVEWESNGQPENNYKTTPPVLDSDGSFFLYSKLTVDKSRWQQGNVFSCSVMHEALHNHYTQKSLSLSPGK
light: DIVMTQSPATLSLSPGERATLSCRSSKSLQNVNGNTYLYWFQQKPGQSPQLLIYRMSNLNSGVPDRFSGSGSGTEFTLTISSLEPEDFAVYYCMQHLEYPITFGAGTKLEIKRTVAAPSVFIFPPSDEQLKSGTASVVCLLNNFYPREAKVQWKVDNALQSGNSQESVTEQDSKDSTYSLSSTLTLSKADYEKHKVYACEVTHQGLSSPVTKSFNRGEC
notes: HuAM4G7 IgG1 Fc variant
Turning to B9, the “Fold FcγRIIb” value worked out at 2.65 fold.

B10: H268D/L328F/I332E (antibody, human IgG1, kappa)
heavy: EVQLVESGGGLVKPGGSLKLSCAASGYTFTSYVMHWVRQAPGKGLEWIGYINPYNDGTKYNEKFQGRVTISSDKSISTAYMELSSLRSEDTAMYYCARGTYYYGTRVFDYWGQGTLVTVSSASTKGPSVFPLAPSSKSTSGGTAALGCLVKDYFPEPVTVSWNSGALTSGVHTFPAVLQSSGLYSLSSVVTVPSSSLGTQTYICNVNHKPSNTKVDKKVEPKSCDKTHTCPPCPAPELLGGPSVFLFPPKPKDTLMISRTPEVTCVVVDVSDEDPEVKFNWYVDGVEVHNAKTKPREEQYNSTYRVVSVLTVLHQDWLNGKEYKCKVSNKAFPAPEEKTISKAKGQPREPQVYTLPPSREEMTKNQVSLTCLVKGFYPSDIAVEWESNGQPENNYKTTPPVLDSDGSFFLYSKLTVDKSRWQQGNVFSCSVMHEALHNHYTQKSLSLSPGK
light: DIVMTQSPATLSLSPGERATLSCRSSKSLQNVNGNTYLYWFQQKPGQSPQLLIYRMSNLNSGVPDRFSGSGSGTEFTLTISSLEPEDFAVYYCMQHLEYPITFGAGTKLEIKRTVAAPSVFIFPPSDEQLKSGTASVVCLLNNFYPREAKVQWKVDNALQSGNSQESVTEQDSKDSTYSLSSTLTLSKADYEKHKVYACEVTHQGLSSPVTKSFNRGEC
notes: HuAM4G7 IgG1 Fc variant
For the molecule B10, the “Fold FcγRIIb” value is 12.3 fold.

B11: L234E/H268D (antibody, human IgG1, kappa)
heavy: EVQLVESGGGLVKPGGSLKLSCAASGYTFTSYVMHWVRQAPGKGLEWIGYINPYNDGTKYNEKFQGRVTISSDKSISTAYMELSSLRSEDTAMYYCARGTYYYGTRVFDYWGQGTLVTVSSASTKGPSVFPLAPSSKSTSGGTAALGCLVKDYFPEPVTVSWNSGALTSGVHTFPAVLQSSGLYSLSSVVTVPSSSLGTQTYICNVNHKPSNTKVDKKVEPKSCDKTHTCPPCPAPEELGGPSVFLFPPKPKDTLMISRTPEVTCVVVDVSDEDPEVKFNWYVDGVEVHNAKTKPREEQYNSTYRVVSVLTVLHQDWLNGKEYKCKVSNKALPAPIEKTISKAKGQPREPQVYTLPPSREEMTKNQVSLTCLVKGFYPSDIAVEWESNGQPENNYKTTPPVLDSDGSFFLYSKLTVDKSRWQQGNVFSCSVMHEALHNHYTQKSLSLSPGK
light: DIVMTQSPATLSLSPGERATLSCRSSKSLQNVNGNTYLYWFQQKPGQSPQLLIYRMSNLNSGVPDRFSGSGSGTEFTLTISSLEPEDFAVYYCMQHLEYPITFGAGTKLEIKRTVAAPSVFIFPPSDEQLKSGTASVVCLLNNFYPREAKVQWKVDNALQSGNSQESVTEQDSKDSTYSLSSTLTLSKADYEKHKVYACEVTHQGLSSPVTKSFNRGEC
notes: HuAM4G7 IgG1 Fc variant
For B11, the “Fold FcγRIIb” value was found to be 5.89 fold.

These data come from patent US20170355766A1 (Xencor, published 2017).
